# Results reported in US7119185.
# B1: Hunk (hormonally up-regulated, neu-tumor-associated kinase), murine, 714-amino-acid ~80-kDa polypeptide (protein)
# chain: MPAAAGDGLLGEPAAPGGDGGAEDTTRPAAACEGSFLPAWVSGVSRERLRDFQHHKRVGNYLIGSRKLGEGSFAKVREGLHVLTGEKVAIKVIDKKRAKKDTYVTKNLRREGQIQQMIRHPNITQLLDILETENSYYLVMELCPGGNLMHKIYEKKRLDEAEARRYIRQLISAVEHLHRAGVVHRDLKIENLLLDEDNNIKLIDFGLSNCAGILGYSDPFSTQCGSPAYAAPELLARKKYGPKIDVWSIGVNMYAMLTGTLPFTVEPFSLRALYQKMVDKAMNPLPTQLSTGAVNFLRSLLEPDPVKRPNIQQALANRWLNENYTGKVPCNVTYPNRISLEDLSPSVVLHMTEKLGYKNSDVINTVLSNRACHILAIYFLLNKKLERYLSGKSDIQDSICYKTQLYQIEKCRATKEPYEASLDTWTRDFEFHAVQDKKPKEQEKRGDFLHRPFSKKLDKNLPSHKQPSPSLITQLQSTKALLKDRKASKSGFPDKDSFVCRNLFRKTSDSNCVASSSMEFIPVPPPRTPRIVKKLEPHQPGPGSASILPKEEPLLLDMVRSFESVDREDHIELLSPSHHYRILSSPVSLARRNSSERTLSQGLLSGSTSPLQTPLHSTLVSFAHEEKNSPPKEEGVCSPPPVPSNGLLQPLGSPNCVKSRGRFPMMGIGQMLRKRHQSLQPSSERSLDASMSPLQPIAPSSLSFDMADGVKGQC
# How the values were obtained:
# [1] = biological target: myelin basic protein
# [2] = biological target: histone H1
protein,measurement,setting,value
B1,in vitro kinase assay of Hunk immunoprecipitates with [gamma-32P]ATP,[1],Hunk immunoprecipitates were able to phosphorylate both histone H1 and MBP in vitro
same,in vitro kinase assay of Hunk immunoprecipitates with [gamma-32P]ATP,[2],Hunk immunoprecipitates were able to phosphorylate both histone H1 and MBP in vitro
same,in vitro kinase assay of anti-Hunk (C-terminal antisera) immunoprecipitates from lactating mammary glands,[2],Hunk-associated kinase activity was substantially greater in immunoprecipitates prepared from transgenic when compared with wild type mammary glands
